For the assay, the target named is T1, purified mouse CACHD1 extracellular domain (CACHD1ECD) (mouse, UniProt Q6PDJ1 50-1109).
T1 construct: CACHD1, mouse, extracellular domain; Construct limits and tags are in the supplementary methods; also called mouse CACHD1ECD; source: purified recombinant
T1 sequence (looked up): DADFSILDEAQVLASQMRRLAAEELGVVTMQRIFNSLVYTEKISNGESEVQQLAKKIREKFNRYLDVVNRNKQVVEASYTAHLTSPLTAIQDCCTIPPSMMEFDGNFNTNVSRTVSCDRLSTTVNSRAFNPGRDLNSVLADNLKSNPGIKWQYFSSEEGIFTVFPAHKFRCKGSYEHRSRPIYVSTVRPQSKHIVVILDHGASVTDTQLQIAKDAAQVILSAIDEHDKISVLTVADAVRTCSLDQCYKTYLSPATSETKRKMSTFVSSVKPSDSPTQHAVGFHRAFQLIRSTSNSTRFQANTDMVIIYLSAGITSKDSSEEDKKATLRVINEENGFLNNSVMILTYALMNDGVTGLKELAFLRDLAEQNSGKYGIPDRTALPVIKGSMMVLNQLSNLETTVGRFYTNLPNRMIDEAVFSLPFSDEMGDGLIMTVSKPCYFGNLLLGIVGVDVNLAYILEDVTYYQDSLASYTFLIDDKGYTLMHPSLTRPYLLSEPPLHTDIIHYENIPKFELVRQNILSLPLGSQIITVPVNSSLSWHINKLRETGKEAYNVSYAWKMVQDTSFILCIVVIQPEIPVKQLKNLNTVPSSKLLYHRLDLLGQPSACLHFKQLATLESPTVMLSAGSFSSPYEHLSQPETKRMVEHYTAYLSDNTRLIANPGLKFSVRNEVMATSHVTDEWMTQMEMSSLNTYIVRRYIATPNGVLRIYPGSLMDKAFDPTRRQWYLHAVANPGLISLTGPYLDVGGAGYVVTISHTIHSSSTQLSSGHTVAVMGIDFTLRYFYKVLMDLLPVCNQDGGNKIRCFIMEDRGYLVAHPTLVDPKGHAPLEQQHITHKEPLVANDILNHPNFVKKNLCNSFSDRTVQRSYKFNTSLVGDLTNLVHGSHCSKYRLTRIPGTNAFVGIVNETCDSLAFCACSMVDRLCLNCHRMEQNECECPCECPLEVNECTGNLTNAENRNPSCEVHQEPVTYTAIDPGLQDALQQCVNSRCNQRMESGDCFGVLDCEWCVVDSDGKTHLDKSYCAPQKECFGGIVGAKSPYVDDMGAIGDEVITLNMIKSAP
The assay is described as follows: SPR; mouse CACHD1ECD as analyte; FZD CRDs or LRP6 fragments immobilised; equilibrium dissociation constants. The conditions noted are these: both partners purified. In general terms: In SPR one partner is held on a chip, and binding of the other changes the refractive index at the surface.

Among the data in publication PMC7615972, “Cachd1 interacts with Wnt receptors and regulates neuronal asymmetry in the zebrafish brain” (Science (New York, N.Y.), 2024) are Kd values, retold here.

B1: human LRP6 membrane proximal fragment (LRP6_(P3E3P4E4)) (domain or fragment)
chain: VPEAFLLFSRRADIRRISLETNNNNVAIPLTGVKEASALDFDVTDNRIYWTDISLKTISRAFMNGSALEHVVEFGLDYPEGMAVDWLGKNLYWADTGTNRIEVSKLDGQHRQVLVWKDLDSPRALALDPAEGFMYWTEWGGKPKIDRAAMDGSERTTLVPNVGRANGLTIDYAKRRLYWTDLDTNLIESSNMLGLNREVIADDLPHPFGLTQYQDYIYWTDWSRRSIERANKTSGQNRTIIQGHLDYVMDILVFHSSRQSGWNECASSNGHCSHLCLAVPVGGFVCGCPAHYSLNADNRTCSAPTTFLLFSQKSAINRMVIDEQQSPDIILPIHSLRNVRAIDYDPLDKQLYWIDSRQNMIRKAQEDGSQGFTVVVSSVPSQNLEIQPYDLSIDIYSRYIYWTCEATNVINVTRLDGRSVGVVLKGEQDRPRAVVVNPEKGYMYFTNLQERSPKIERAALDGTEREVLFFSGLSKPIALALDSRLGKLFWADSDLRRIESSDLSGANRIVLEDSNILQPVGLTVFENWLYWIDKQQQMIEKIDMTGREGRTKVQARIAQLSDIHAVKELNLQEYRQHPCAQDNGGCSHICLVKGDGTTRCSCPMHLVLLQDELSCG
notes: LRP6, human, membrane proximal fragment P3E3P4E4; also called 3-4
Consider B1, for which the Kd was 0.17 ± 0.01 µM.

B2: mouse FZD5 cysteine-rich domain (FZD5CRD) (domain or fragment)
chain: ASKAPVCQEITVPMCRGIGYNLTHMPNQFNHDTQDEAGLEVHQFWPLVEIHCSPDLRFFLCSMYTPICLPDYHKPLPPCRSVCERAKAGCSPLMRQYGFAWPERMSCDRLPVLGGDAEVLCMDYNRSEAT
notes: Frizzled-5, mouse, cysteine-rich domain (CRD); source: purified recombinant
On to B2, for which the Kd came out at 0.48 ± 0.04 µM.

A word on the Kd: it is the constant that tells how readily two partners part at equilibrium.
